# In patent US20040022780A1, “Serine protease and topical retinoid compositions useful for treatment of acne vulgarise and production of anti-aging effects” (priority 1997, published 2004):
# Key:
# Rhino mouse skin [1] = assay: Histology after suboptimal trypsin, all-trans retinoic acid or both; assay type: in vivo; conditions: suboptimal dose alone: 0.005% (w/v) trypsin or 0.0005% (w/v) all-trans retinoic acid
# Description: A first set of Rhino mice of Example 1 were treated with suboptimal doses of the trypsin composition of Example 2. […] A second set of Rhino mice of Example 1 were treated with suboptimal concentrations of the all-trans retinoic acid composition of Example 2. A third set of Rhino mice of Example 1 were treated with both suboptimal doses of the trypsin composition of Example 2 and the all-trans retinoic acid composition of Example 2. In this third set of Rhino mice, the trypsin and all-trans retinoic acid treatments were each administered daily, but at different times (i.e. trypsin in the morning and all-trans retinoic acid in the afternoon). Mice were sacrificed and their skins were examined histologically with the procedure set forth in Example 3.
# Rhino mouse skin [2] = assay: H&E histology of trypsin treated Rhino mouse skin; assay type: in vivo; conditions: 0.1% (w/v) trypsin in GDL liposomes daily for five days
# C57B1/6 skin = assay: Cutometer analysis of skin elasticity, C57B1/6 mouse; assay type: in vivo, C57B1/6 mice; conditions: Day 16, trypsin treated
# Description: To quantitate this effect, a cutometer analysis was performed. We used a cutometer available from Acaderm (Menlo Park, Calif.), and employed the methods described in Couturaud et al., “Skin Biomechanical Properties: In Vivo Evaluation of Influence of Age and Body Site by a Non-Invasive Method,” 1 Skin Res. and Technol. 68-73 (1995) and Elsner et al., “Mechanical Properties of Human Forearm and Vulvar Skin,” 122 Br. J. Dermatol. 607-614 (1990) which are both incorporated herein by reference in their entirety. Suction was applied through a 2 mm aperture and the corresponding skin displacement and recovery after release of the negative pressure were measured. In human studies, an improvement in the ratios of deformation parameters Ua/Uf (skin fatigue, or total recovery from the load), Ur/Uf (biological elasticity, or elastic recovery after loading), and Ur/Ue (firmness, or improvement in the deformation resistance of the skin) indicates better tonicity and elasticity of the skin. The deformation parameters Ue, Uf, Ua, and Ur are dependent, in part, on skin thickness. Consequently, ratios were used for evaluation as described in Barel et al., “Suction Method for Measurement of Skin Mechanical Properties: The Cutometer,” Handbook of Non-Invasive Methods and the Skin 335-340 (1995) which is incorporated herein by reference in its entirety.
# FIGS. 3(c) and (d), the untreated and trypsin treated skins, respectively, show the results of elastin staining.
# Transglutaminase mRNA = assay: RT-PCR gene expression in skin, transglutaminase; assay type: in vivo, Rhino mouse; conditions: increasing concentrations of trypsin (0.0001-0.01% (w/v)) daily for five days
# Description: (§1) Rhino mice of Example 1 were treated daily with trypsin compositions (0% (w/v), 0.0001% (w/v), 0.001% (w/v), and 0.01% (w/v)), as prepared in Example 2, for five days and sacrificed at day eight. The skins of vehicle treated mice and trypsin-treated mice were obtained as described in Example 3, then their total RNAs were extracted using “RNA Stat-60” reagent available from Tel-Test “B,” Inc. as described in Chomczymski, “Single Step Method of RNA Isolation By Acid Guanidinium Thiocyanate-phenol-chloroform extraction,” 162 Anal. Biochem. 156-59 (1987) which is incorporated herein by reference in its entirety. A sufficient amount of RNase-free DNase available from Promega, Corp. under the tradename “RQ1 RNase-free DNase” was then added to the extracted RNA from each mouse such that each respective product contained 200 ng of DNased-RNA using the procedure set forth in “RNase-free DNase” protocol published by Promega, Corp. (May, 1995). […]
# (§2) The PCR products were then analyzed on 2% agarose/ethidium bromide gels according to methods well-known in the art in order to compare the level of expression of certain genes in skins of trypsin-treated and untreated mice. […]
# Elastin mRNA = assay: RT-PCR gene expression in skin, elastin; assay type: in vivo, Rhino mouse; conditions: increasing concentrations of trypsin (0.0001-0.01% (w/v)) daily for five days
# Description: as §1, §2
# [3] = test system: utriculi of Rhino mouse skin; assay: Rhino mouse utriculus size reduction (whole mount epidermis image analysis); assay type: in vivo; conditions: single trypsin 1% (w/v) treatment, analyzed seven days later
# [4] = test system: elastin fibers in Rhino mouse skin; assay: Elastin staining of paraffin skin sections, Rhino mouse; assay type: in vivo; conditions: trypsin treated Rhino mice vs untreated
# Description: To further study this elasticity effect, skin sections of Rhino mice from Example 1 treated with the trypsin composition of Example 2 were stained for elastin on paraffin sections in accordance with the methods set forth in Kligman, L. H., “Luna's Technique, A Beautiful Stain for Elastin,” 3(2) The Amer. J. of Dermatopathol. 199-200 (1981) which is incorporated herein by reference in its entirety.
molecule,measurement,setting,value
"trypsin (protein, UniProt P00760 24-246, looked up, lyophilyzed trypsin from Sigma-Aldrich, a serine protease, in Hepes buffer mixed with GDL liposomes) Serine protease 1: IVGGYTCGANTVPYQVSLNSGYHFCGGSLINSQWVVSAAHCYKSGIQVRLGEDNINVVEGNEQFISASKSIVHPSYNSNTLNNDIMLIKLKSAASLNSRVASISLPTSCASAGTQCLISGWGNTKSSGTSYPDVLKCLKAPILSDSSCKSAYPGQITSNMFCAGYLEGGKDSCQGDSGGPVVCSGKLQGIVSWGSGCAQKNKPGVYTKVCNYVSWIKQTIASN",skin histology of treatment given alone vs untreated skin,Rhino mouse skin [1],marked inprovement
same,inflammatory cells in skin histology,Rhino mouse skin [2],no inflammatory cells
same,epidermis histology (H&E),Rhino mouse skin [2]; vs untreated,hyperplastic with an increase in the number of cell layers
same,"Ua/Uf (skin fatigue, total recovery from the load)",C57B1/6 skin,0.675 ± 0.18
same,Ur/Ue (firmness),C57B1/6 skin,0.7335 ± 0.02
same,Ur/Uf (biological elasticity),C57B1/6 skin,0.404 ± 0.1
same,Transglutaminase mRNA level,Transglutaminase mRNA,reduced to below detection level
same,Elastin mRNA,Elastin mRNA,increased
same,effect on utriculus size reduction of a single treatment,[3],no effect
same,elastin fibers around the utriculi and the sebaceous glands,[4],increased in thickness and density
